Test results published in the supplement of paper PMC11246515.
± gives the standard deviation of the averaged measurements.

Experiment: total protein half-life in vivo (active degradation + dilution); higher = more stable protein
[1] = E. coli NCM3722 delta-clpP delta-lon delta-hslV, growth: N-lim chemostat, doubling time 6 h
[2] = wild type E. coli NCM3722, growth: C-lim chemostat, doubling time 6 h
[3] = wild type E. coli NCM3722, growth: N-lim chemostat, doubling time 6 h
[4] = E. coli NCM3722 delta-lon, growth: N-lim chemostat, doubling time 6 h
[5] = E. coli NCM3722 delta-smpB, growth: N-lim chemostat, doubling time 6 h
[6] = wild type E. coli NCM3722, growth: C-lim chemostat, doubling time 12 h
[7] = wild type E. coli NCM3722, growth: N-lim chemostat, doubling time 12 h
[8] = wild type E. coli NCM3722, growth: P-lim chemostat, doubling time 6 h
[9] = wild type E. coli NCM3722, growth: P-lim chemostat, doubling time 12 h
[10] = E. coli NCM3722 delta-clpP, growth: N-lim chemostat, doubling time 6 h
[11] = E. coli NCM3722 delta-hslV, growth: N-lim chemostat, doubling time 6 h
[12] = wild type E. coli NCM3722, growth: C-lim chemostat, doubling time 3 h

| Sequence | total protein half-life in vivo [1] [h] | total protein half-life in vivo [2] [h] | total protein half-life in vivo [3] [h] | total protein half-life in vivo [4] [h] | total protein half-life in vivo [5] [h] | total protein half-life in vivo [6] [h] | total protein half-life in vivo [7] [h] | total protein half-life in vivo [8] [h] | total protein half-life in vivo [9] [h] | total protein half-life in vivo [10] [h] | total protein half-life in vivo [11] [h] | total protein half-life in vivo [12] [h] |
| --- | --- | --- | --- | --- | --- | --- | --- | --- | --- | --- | --- | --- |
| MKTLIARHKAGEHIGICSVCSAHPLVIEAALAFDRNSTRKVLIEATSNQVNQFGGYTGMTPADFREFVFTIADKVGFARERIILGGDHLGPNCWQQENADAAMEKSVELVKEYVRAGFSKIHLDASMSCAGDPIPLAPETVAERAAVLCFAAESVATDCQREQLSYVIGTEVPVPGGEASAIQSVHITHVEDAANTLRTHQKAFIARGLTEALTRVIAIVVQPGVEFDHSNIIHYQPQEAQPLAQWIENTRMVYEAHSTDYQTRTAYWELVRDHFAILKVGPALTFALREAIFALAQIEQELIAPENRSGCLAVIEEVMLDEPQYWKKYYRTGFNDSLLDIRYSLSDRIRYYWPHSRIKNSVETMMVNLEGVDIPLGMISQYLPKQFERIQSGELSAIPHQLIMDKIYDVLRAYRYGCAE [P0C8J8] | 5.59 | 2.97 | > 8 | – | – | – | – | – | – | – | – | – |
| MMANIWWSLPLTLIVFFAARKLAARYKFPLLNPLLVAMVVIIPFLMLTGISYDSYFKGSEVLNDLLQPAVVALAYPLYEQLHQIRARWKSIITICFIGSVVAMVTGTSVALLMGASPEIAASILPKSVTTPIAMAVGGSIGGIPAISAVCVIFVGILGAVFGHTLLNAMRIRTKAARGLAMGTASHALGTARCAELDYQEGAFSSLALVLCGIITSLIAPFLFPIILAVMG [P0AD19] | – | – | 5.99 | – | – | – | – | – | – | – | – | – |
| MIEWIIRRSVANRFLVLMGALFLSIWGTWTIINTPVDALPDLSDVQVIIKTSYPGQAPQIVENQVTYPLTTTMLSVPGAKTVRGFSQFGDSYVYVIFEDGTDPYWARSRVLEYLNQVQGKLPAGVSAELGPDATGVGWIYEYALVDRSGKHDLADLRSLQDWFLKYELKTIPDVAEVASVGGVVKEYQVVIDPQRLAQYGISLAEVKSALDASNQEAGGSSIELAEAEYMVRASGYLQTLDDFNHIVLKASENGVPVYLRDVAKVQIGPEMRRGIAELNGEGEVAGGVVILRSGKNAREVIAAVKDKLETLKSSLPEGVEIVTTYDRSQLIDRAIDNLSGKLLEEFIVVAVVCALFLWHVRSALVAIISLPLGLCIAFIVMHFQGLNANIMSLGGIAIAVGAMVDAAIVMIENAHKRLEEWQHQHPDATLDNKTRWQVITDASVEVGPALFISLLIITLSFIPIFTLEGQEGRLFGPLAFTKTYAMAGAALLAIVVIPILMGYWIRGKIPPESSNPLNRFLIRVYHPLLLKVLHWPKTTLLVAALSVLTVLWPLNKVGGEFLPQINEGDLLYMPSTLPGISAAEAASMLQKTDKLIMSVPEVARVFGKTGKAETATDSAPLEMVETTIQLKPQEQWRPGMTMDKIIEELDNTVRLPGLANLWVPPIRNRIDMLSTGIKSPIGIKVSGTVLADIDAMAEQIEEVARTVPGVASALAERLEGGRYINVEINREKAARYGMTVADVQLFVTSAVGGAMVGETVEGIARYPINLRYPQSWRDSPQALRQLPILTPMKQQITLADVADIKVSTGPSMLKTENARPTSWIYIDARDRDMVSVVHDLQKAIAEKVQLKPGTSVAFSGQFELLERANHKLKLMVPMTLMIIFVLLYLAFRRVGEALLIISSVPFALVGGIWLLWWMGFHLSVATGTGFIALAGVAAEFGVVMLMYLRHAIEAVPSLNNPQTFSEQKLDEALYHGAVLRVRPKAMTVAVIIAGLLPILWGTGAGSEVMSRIAAPMIGGMITAPLLSLFIIPAAYKLMWLHRHRVRK | – | 7.07 | 5.97 ± 0.71 | > 8 | 6.09 | > 16 | 12.6 ± 3.8 | 6.31 ± 0.89 | 12.7 ± 0.39 | – | – | – |
| MLDTNMKTQLKAYLEKLTKPVELIATLDDSAKSAEIKELLAEIAELSDKVTFKEDNSLPVRKPSFLITNPGSNQGPRFAGSPLGHEFTSLVLALLWTGGHPSKEAQSLLEQIRHIDGDFEFETYYSLSCHNCPDVVQALNLMSVLNPRIKHTAIDGGTFQNEITDRNVMGVPAVFVNGKEFGQGRMTLTEIVAKIDTGAEKRAAEELNKRDAYDVLIVGSGPAGAAAAIYSARKGIRTGLMGERFGGQILDTVDIENYISVPKTEGQKLAGALKVHVDEYDVDVIDSQSASKLIPAAVEGGLHQIETASGAVLKARSIIVATGAKWRNMNVPGEDQYRTKGVTYCPHCDGPLFKGKRVAVIGGGNSGVEAAIDLAGIVEHVTLLEFAPEMKADQVLQDKLRSLKNVDIILNAQTTEVKGDGSKVVGLEYRDRVSGDIHNIELAGIFVQIGLLPNTNWLEGAVERNRMGEIIIDAKCETNVKGVFAAGDCTTVPYKQIIIATGEGAKASLSAFDYLIRTKTA | 3.63 ± 0.29 | 4.6889 ± 0.00064 | 2.56 ± 0.047 | 2.81 ± 0.1 | 2.68 ± 0.052 | 7.3 ± 0.34 | 3.37 ± 0.05 | 5.26 ± 0.2 | 9.723 ± 0.068 | 2.59 ± 0.18 | 2.67 ± 0.26 | 2.949 ± 0.0042 |
| MKLAACFLTLLPGFAVAASWTSPGFPAFSEQGTGTFVSHAQLPKGTRPLTLNFDQQCWQPADAIKLNQMLSLQPCSNTPPQWRLFRDGEYTLQIDTRSGTPTLMISIQNAAEPVASLVRECPKWDGLPLTVDVSATFPEGAAVRDYYSQQIAIVKNGQIMLQPAATSNGLLLLERAETDTSAPFDWHNATVYFVLTDRFENGDPSNDQSYGRHKDGMAEIGTFHGGDLRGLTNKLDYLQQLGVNALWISAPFEQIHGWVGGGTKGDFPHYAYHGYYTQDWTNLDANMGNEADLRTLVDSAHQRGIRILFDVVMNHTGYATLADMQEYQFGALYLSGDEVKKSLGERWSDWKPAAGQTWHSFNDYINFSDKTGWDKWWGKNWIRTDIGDYDNPGFDDLTMSLAFLPDIKTESTTASGLPVFYKNKMDTHAKAIDGYTPRDYLTHWLSQWVRDYGIDGFRVDTAKHVELPAWQQLKTEASAALREWKKANPDKALDDKPFWMTGEAWGHGVMQSDYYRHGFDAMINFDYQEQAAKAVDCLAQMDTTWQQMAEKLQGFNVLSYLSSHDTRLFREGGDKAAELLLLAPGAVQIFYGDESSRPFGPTGSDPLQGTRSDMNWQDVSGKSAASVAHWQKISQFRARHPAIGAGKQTTLLLKQGYGFVREHGDDKVLVVWAGQQ | 4.78 ± 0.17 | 6.26 ± 0.66 | 5.75 | 7.45 | 5.36 ± 0.33 | – | 9.72 | 7.07 | 9.37 ± 2.8 | 7.23 ± 0.88 | 4.97 | 3.262 ± 0.0075 |
| MSEQLVTPENVTTKDGKINLLDLNRQQMREFFKDLGEKPFRADQVMKWMYHYCCDNFDEMTDINKVLRGKLKEVAEIRAPEVVEEQRSSDGTIKWAIAVGDQRVETVYIPEDDRATLCVSSQVGCALECKFCSTAQQGFNRNLRVSEIIGQVWRAAKIVGAAKVTGQRPITNVVMMGMGEPLLNLNNVVPAMEIMLDDFGFGLSKRRVTLSTSGVVPALDKLGDMIDVALAISLHAPNDEIRDEIVPINKKYNIETFLAAVRRYLEKSNANQGRVTIEYVMLDHVNDGTEHAHQLAELLKDTPCKINLIPWNPFPGAPYGRSSNSRIDRFSKVLMSYGFTTIVRKTRGDDIDAACGQLAGDVIDRTKRTLRKRMQGEAIDIKAV | 4.37 ± 0.19 | 1.89 ± 0.12 | 1.31 ± 0.027 | 1.57 ± 0.14 | 1.15 ± 0.025 | 2.442 ± 0.024 | 1.88 ± 0.24 | 1.78 ± 0.32 | 2.3 ± 0.26 | 2.76 ± 0.77 | 1.13 ± 0.07 | 1.35 ± 0.022 |
| MHYMKWIYPRRLRNQMILMAILMVIVPTLTIGYIVETEGRSAVLSEKEKKLSAVVNLLNQALGDRYDLYIDLPREERIRALNAELAPITENITHAFPGIGAGYYNKMLDAIITYAPSALYQNNVGVTIAADHPGREVMRTNTPLVYSGRQVRGDILNSMLPIERNGEILGYIWANELTEDIRRQAWKMDVRIIIVLTAGLLISLLLIVLFSRRLSANIDIITDGLSTLAQNIPTRLPQLPGEMGQISQSVNNLAQALRETRTLNDLIIENAADGVIAIDRQGDVTTMNPAAEVITGYQRHELVGQPYSMLFDNTQFYSPVLDTLEHGTEHVALEISFPGRDRTIELSVTTSRIHNTHGEMIGALVIFSDLTARKETQRRMAQAERLATLGELMAGVAHEVRNPLTAIRGYVQILRQQTSDPIHQEYLSVVLKEIDSINKVIQQLLEFSRPRHSQWQQVSLNALVEETLVLVQTAGVQARVDFISELDNELSPINADRELLKQVLLNILINAVQAISARGKIRIQTWQYSDSQQAISIEDNGCGIDLSLQKKIFDPFFTTKASGTGLGLALSQRIINAHQGDIRVASLPGYGATFTLILPINPQGNQTV | 6.89 | 6.53 | – | – | – | – | – | – | – | – | – | 3.09 ± 0.28 |
| MSKSLQKPTILNVETVARSRLFTVESVDLEFSNGVRRVYERMRPTNREAVMIVPIVDDHLILIREYAVGTESYELGFSKGLIDPGESVYEAANRELKEEVGFGANDLTFLKKLSMAPSYFSSKMNIVVAQDLYPESLEGDEPEPLPQVRWPLAHMMDLLEDPDFNEARNVSALFLVREWLKGQGRV | 4.86 ± 0.33 | 5.24 ± 0.67 | 3.9 ± 0.67 | 4.58 ± 0.89 | 3.4 ± 0.13 | 9.26 ± 1.9 | 5.391 ± 0.048 | 5.95 ± 0.12 | 11.5 ± 1 | 4.8 ± 1.8 | 3.56 ± 0.2 | 3.39 ± 0.13 |
